Source: the nanobody polyreactivity screen of Harvey et al. (2022)

Experiment: yeast display, Sf9 membrane polyspecificity reagent, FACS + sequencing; frameworks hold sequencing errors
How it was run: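 Nanobodies from a synthetic yeast display library (Saccharomyces cerevisiae BJ5465), induced 36–48 hours with galactose, were stained 1 hour at 4 °C with 10% biotinylated, detergent-solubilized Sf9 membrane reagent, enriched on streptavidin microbeads, then FACS-sorted. Anti-HA (expression) and streptavidin (reagent binding) fluorescence set low and high (top ~1%) gates. Polyreactivity labels come from the gate of origin. Genes were colony-PCR amplified, MiSeq 2 × 250 sequenced and filtered by CDR length.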

QVQLVESGGGLVQAGGSLRLSCAASGSTFPYNAMGWYRQAPGKERELVAAITWRAGRTYYADSVKGRFTSSRDNAKNTVYLQMNSLKPEDTAVYYCAKSYQRGVNHYEYWGQGTQVSVSS
polyreactivity (PSR sort gate): high polyreactivity

QVQLVESGGGLVQAGGSLRLSCAASGRIFKVYAMGWSRQAPGKERELVAAITSGGSTNYADSVKGRFTISRDNAKTTVYLQMNSRKPEDTAVYYCAVVSGRWSAVQYDYWGQGTQVTVSS
polyreactivity (PSR sort gate): high polyreactivity

QVQLVESGGGLVQAGGSLRLSCAASGNTFTKYAMGWYRQAPGKERELVADITIGGSTYYADSVKGRFTISRDNAKNTVYLQMNSLKPEDTAVYYCNADVVVQYYFTYYRVFTYDYWGQGTQVTVSS
polyreactivity (PSR sort gate): low polyreactivity

QVQLVESGGGLVQAGGSLRLSCAASGRNFVRYTMGWYRQAPGKERELVAAISGSGSSTFYADSVKGRFTISRDNAKNTVYLQMNSLKPEDTAVYYCAARVRRVARDPYDYWGQGTQVTVSS
polyreactivity (PSR sort gate): high polyreactivity

QVQLVESGGGLVQAGGSLRLSCAASGFTLTLYAMGWYRQAPGKERELVARITSSGGITYYADSVKGRFTISRDNAKNTVYLQMISLKPEDTAVYYCAKEALIGPSRIILGEMGYWGQGTQVTVSS
polyreactivity (PSR sort gate): low polyreactivity

QVQLVESGGGLVQAGGSLRLSCAASGSIIGSNAMGWYRQAPGKERELVAAISRSGTRTYYADSVKGRFTISRDNAKNTVYLQMNSLKPEDTAVYYCATRGGGYWGQGTQVTVSS
polyreactivity (PSR sort gate): high polyreactivity

QVQLVESGGGLVQAGGSLRLSCAASGRIIIEYAMGWYRQAPGKERELVASITSSGGRTTFADSVKGRFTISRDNAKNTVYLQMNSLKPEDTSVYYCAAKYYWYYSYSGIPLFDYWGQGTQVTVSS
polyreactivity (PSR sort gate): low polyreactivity

QVQLVESGGGVVQAGASLRLSCAASGNIFYGYAMGWYRQAPGKERELVARINWSGSRTYYADSVKGRFTISRDNAKNTVYLQMNSLKPEDTAVYYCNTSTSRVPGNGDYWGQGSQVTVSS
polyreactivity (PSR sort gate): high polyreactivity

QVQLVESGGGLVQAGGSLRISCAASGRTFKRYAMGWYRQAPGKERELVAAITGTGAITYYADSVKGRFTISRDNAKNTVYLQMNSLKPEDTAVYYCNARYWYRYGGYKPVGGYYWGQGTQVTVSS
polyreactivity (PSR sort gate): high polyreactivity

QVQLVESGGGLVQAGGSLRLSCAASGSIFDWYAMGWYRQAPGKERELGAAITNSGGRTYYADSVKGRFTISRDTAKNTVYLQMNSLKPEDTAVYYCNASVFRLRKMYYWGQGTPVTVSS
polyreactivity (PSR sort gate): high polyreactivity

QVQLVESGGGLVQAGGSLRLSCAASGSTFRLYPMGWYRQAPGKERELVAAISRSGGSTYYADSVKGRFTISRDNAKNTVYLQMNRLKPEDTAVYYCAKRRPLYAHPDDYWGQGTQVTVSS
polyreactivity (PSR sort gate): low polyreactivity

QVQLQESGGGLVQAGGSLRLSCAASGNIYPTVSMGWYRQAPGKEREFVVTIDPGSNTYYADSAKGRFTISRDNAKNTVYLQMNSPKPEDTAVYYCAVVFADWATYGYWGQGTQVTVSS
polyreactivity (PSR sort gate): high polyreactivity

QVQIVESGGGLVQAGGSLSLSCADYGSTFYHNVMGWYRQAPGKERELVASIDTGDSTNYADSVKGRFTISRDNAKNTVYLQMNSLKPEYTAVYYCNADSYPALNKRGYDYWGQGTQVTVSS
polyreactivity (PSR sort gate): low polyreactivity

QVQIVESGGGLVQAGGSLRLSCAASGRIFTYNAMGWSRQAPGKERELVAAITRGGTTNYADSVKVRFTISRDNAKNTVYLQMNSLKPEDTAVSYCARAGAHPWWSRSTMYYWGQGTQVTVSS
polyreactivity (PSR sort gate): low polyreactivity

QVHLVESGGGLVQAGGSLRLSCAASGRIFKDNAMGWYRQAPGKERELVATIDSGGDTNYADSVKGRFTISRDNAKNTVYLQMNSLKPEDTAVYYCNTEGFLSAVYAFGYWGQGTQVTVSS
polyreactivity (PSR sort gate): low polyreactivity

QVQLVESVGGLVQAGGSLRLSCAASGSTFYFNDMGWYRQAPGKERELVAAISRGGSTYYADSVKGRFTISRDTAKNTVYLQMNSLKPEDTAVYYCANGSYVRNYGYWGQGTQVTVSS
polyreactivity (PSR sort gate): high polyreactivity

QVQLVESGGGLVQAGGSLRLSCAASGSIYGPYAMGLYRQAPGKERELVAGITRSVGSTYYADSVKGRFTISRDYAKNTVYLQMNSLKPEDTAVYYCNAKWMYSRWAGYDYWGQGTQVTVSS
polyreactivity (PSR sort gate): low polyreactivity

QVQLVESGGCLVQAGGSLRLSCAASGSIFDAYDKGWYRQAPGKERELVAAISRSGASTYYADSVKGRFTISRDNAKNTVYLQMNSLKPEDTAVYSCAARDRQRVSYGYWGQGTQVTVTS
polyreactivity (PSR sort gate): high polyreactivity

QVQLVESGGGLVQAGGSLRLSCAASGRIFYSNAMGWYRQAPGKERELVAAISRSGVRTYYADSVKGRFTISRDNAKNTVYLQMNSLKPEDTAVYYCAAVIYGTTPQDEYDYWGQGTQVTVSS
polyreactivity (PSR sort gate): low polyreactivity

QVQLVETGGGLVQAGGSLRISCAASGRIFGVYAMGWYRQAPGKERELVAAITRGASTYYADSVKGRFTISRDNAKNTVYLQMNILKPEDTAVYYCAVSQYRGIYRKYDYWGQGTQVTVSS
polyreactivity (PSR sort gate): high polyreactivity

QVQLVESGGGLVQAGGSLRLSCAASGRIFGRNAMGWYRQAPGKERELVAAISSSGGTYYADSVKGRFTISRDNAKNTVYLQMNSLKPEDTAVYYCNARVRTQQRWVDYWGQGTQVTVSS
polyreactivity (PSR sort gate): high polyreactivity

QVQLVESGGGLVQAGCSLRLSCAASGITFYGNAMGSYRQAPGKERELVAAISRRGGSTYYADSVKGRFTSSRDNAKNSVYLQMISLKPEDTAVYYCAARYYSWSFRFDYWGQGTQLTVSS
polyreactivity (PSR sort gate): high polyreactivity

QVQLVESGGGLVQAGGSLRLSCAASGRIIYWYAMGWYRQAPGKERELVAAIDWSAASTYYADSVKGRFTISRDNAKNTVYLQMNSLKPEDTAVYYCNRRGRGGESYRTTPGALGYWGQGTQVTVSS
polyreactivity (PSR sort gate): low polyreactivity

QVQLVESGGGLVQAGGSLRLSCAASGNIFRRYAMGWYRQAPGKERELVAAISRGGTRTYYADSVKGRFTISRDNAKNTVYLQMNSLKPEDTAVYYCNAEVKTNYRIADYDYWGQGTQVTVSS
polyreactivity (PSR sort gate): high polyreactivity

QVQLVESGGGLVQAGGSLRLSCAASGSIFPHYAMGWSRQAPGKERELVSAISSGGRTYYADSVKGRFTISRDNAKNTVYLQMNSLKPEDTAVYYCAARRIARKGYGYWGQGTQVTVSS
polyreactivity (PSR sort gate): high polyreactivity

QVQLVESGGGLVQAGGSLRLSCAASGLTFDYYTMGWYRQAPGNERELVAAINWSGGRTYYADSVKGRFTISRDNAKNTVYLQMNSLKPEDTAVYYCAAETYRRHDYDYWGQGTQVTVSS
polyreactivity (PSR sort gate): high polyreactivity

QVQLVESGGGLVQAGGSLRLSCAASGSTFQSYAMGWSRPAPGKERELVAAISFSGGSTYYADSVKGRFTISRDHAKNTVYLQMNSLKPEDTAVYYCAADVAYVEYAYWGQGTQVTVSS
polyreactivity (PSR sort gate): low polyreactivity

QDQLVESGGGLVQAGGSLRLSCAASGITFVYYAMGWYRQAPGKERELVAAITGSGDSTYYADSVKGRFTISRDNAKNTVYLQMNSLKPEDTAVYYCAAEAWWYGGFGYWGQGTQVTVSS
polyreactivity (PSR sort gate): high polyreactivity

QVQLVESGGGLVQAGGSLRLSCAASGNIFSTYAIGWTRQAPGKERELVASISENGGSTYYADSVKGRFTISRDNAKNTVYLQMNSLKPDDTAVYYCAKGQLYSLFFQHDAPYRYGYWGQGTQVTVSS
polyreactivity (PSR sort gate): low polyreactivity

QVQLVESGGGLVQAGGSLRLSCAASGRTFYRNAMGWYRQAPGKERELVAAISQRGGRTYYADSVKGRFTISRDNAKNTVYLQMNSLKPEDTAVYYCAASPIYPVYRRHGYWGQGTQVTVSS
polyreactivity (PSR sort gate): high polyreactivity

QVQLVESGGGLVQAGGSLRLSSAASGSTSPRNAMGWYRQAPGKERELVAAISSGGRTNYADSVKGRFTISRDNAKNTVYFQMHSLKPEDTAVYYCAAVVHSTYWAQGTQVTVSS
polyreactivity (PSR sort gate): low polyreactivity

QVQLVESGGALVQAGGSLRLTCAASGRTFYYYAKGWYRPAPGTERELVAAISCSGGRTYYADSVKGRFTISRDNANDTVYVPMNSLKPEDTAVFYCYAEPPSGYTVSSGGEMDYWGQGTQVTVSS
polyreactivity (PSR sort gate): low polyreactivity

QVQLVESGGGLVQAGGSLRLSCAASGSIFDEYAMGWYRQAPGKERELVAAITYSGGDTYYADSVKGRFTISRDNAKNTVYLQMNSLKPEDTAVYYCAVDTPLEYYHQQAYVAGEYWGQGTQVTVSS
polyreactivity (PSR sort gate): low polyreactivity

QGQLVESGGGLVQAGGSLRLSCAASGRSVARYAMGGYRQAPGKERELVAAITVSGDNTYYADSVKGRFTISRDNAKNTVYLQMNSLKPEDTAVYYCAVRAVLLIGFFEYDYWGQGTQVTVSS
polyreactivity (PSR sort gate): low polyreactivity

QVQLVESGGGLVQAGGSLRLSCAASGIIFYWYAMGWYRQAPGKERELVAAITRVGSTNYADSVKGRFTISRDNAKNTVYLQMNSLKPEDTAVYYCAADLWQRHYLVGFGIRYDYWGQGTQVTVSS
polyreactivity (PSR sort gate): low polyreactivity

QVQLVESVGGLVQAGCSLRLSCGASGRIFPWYAMGWYRPAPGKERELVAAIRWRGGGTYYADSVKGRFTISRDNAKNTVYLQMNSLKPEDTAVYYCSARRPAKGMGYWGQGTQVTVSS
polyreactivity (PSR sort gate): high polyreactivity

QVQLVESGGGLVQAGGSLRLSCAASGRIFGLYTMGWYRQAPGKEREFVAGITYSAGRTYYADSVKGRFTISRDNAKNTVYLQMNSLKPEDTAVYYCAATRRWYPTKLYGYWGQVTQVTVSS
polyreactivity (PSR sort gate): high polyreactivity

QVQLVESGGGLVQAGGSLRLSCAASGFTFYRYAMGWYRQAPGKERELVATISASGGSTYYADSVKGRFTISRDNAKNTVYLQMNSVKPEDTAVYYFAVRYKSWYGFNYWGQGTQVTVSS
polyreactivity (PSR sort gate): high polyreactivity

QVQLVESGGGLVQAGGSLRLSCAASGSTFTTYAMAWYRQAPGKERELVAAISTNGGRTFYADSVKGRFTISRDNAKNTVYLLMNSLKAEDTAVYYCAADRAGSIMNYWGQGTQVTVSS
polyreactivity (PSR sort gate): low polyreactivity

QVQLVESGGGLVQAGGSLRLSCAASGSIFFLYAMGWYRQAPGKERELVASISRGDSTNYADSVKGRFTISRDNAKNTVYLQMNSLKPEDTAVYYCAAYRLYWPSTARRYDYWGQGTQVTVSS
polyreactivity (PSR sort gate): low polyreactivity

QVQLVESGGRLVQAGGSLRLSCAPSGRTFRWYAMGWYRQSPGKERELVAAISRSGGSTYYADSVKGRFTISRDNAKYTVFLQMNILKPEDTAVYYCANVRYDFKLDYWGQGTQVTVSS
polyreactivity (PSR sort gate): high polyreactivity

QVQLVESGGGLVQAGGSLRLSCAASGRTFGGYALGWYRQAPGKERELVAAISSGGGTYADSVKGRFTISRDNAKNTVYIQMNSLKPEDTAVYYCAAGYRWYWASKPTVHYYYWGPGTQVTVSS
polyreactivity (PSR sort gate): high polyreactivity

QVQLVESGGGLVQAGGSLRLSCAASGSISFSNAMGWYRQAPGKERELVASITSGGSTKYADSVKGRFTISRDNAKNTVYLQMNSLKPEDTAVYYCAADGYDYWGQGTQVTVSS
polyreactivity (PSR sort gate): low polyreactivity
